± gives the standard deviation of the averaged measurements.

The data set in a line: total protein half-life in vivo (active degradation + dilution); higher = more stable protein.
[1] abbreviates: E. coli NCM3722 delta-clpP delta-lon delta-hslV, growth: N-lim chemostat, doubling time 6 h.
Where [2] appears, read: E. coli NCM3722 delta-clpP, growth: N-lim chemostat, doubling time 6 h.
The mark [3] stands for this setting: E. coli NCM3722 delta-hslV, growth: N-lim chemostat, doubling time 6 h.
Where [4] appears, read: E. coli NCM3722 delta-lon, growth: N-lim chemostat, doubling time 6 h.
The mark [5] stands for this setting: E. coli NCM3722 delta-smpB, growth: N-lim chemostat, doubling time 6 h.
The mark [6] stands for this setting: wild type E. coli NCM3722, growth: C-lim chemostat, doubling time 3 h.
The mark [7] stands for this setting: wild type E. coli NCM3722, growth: C-lim chemostat, doubling time 6 h.
Where [8] appears, read: wild type E. coli NCM3722, growth: C-lim chemostat, doubling time 12 h.
Where [9] appears, read: wild type E. coli NCM3722, growth: N-lim chemostat, doubling time 6 h.
The mark [10] stands for this setting: wild type E. coli NCM3722, growth: N-lim chemostat, doubling time 12 h.
[11] abbreviates: wild type E. coli NCM3722, growth: P-lim chemostat, doubling time 6 h.
[12] abbreviates: wild type E. coli NCM3722, growth: P-lim chemostat, doubling time 12 h.

With “MVWLANPERYGQMQYRYCGKSGLRLPALSLGLWHNFGHVNALESQRAILRKAFDLGITHFDLANNYGPPPGSAEENFGRLLREDFAAYRDELIISTKAGYDMWPGPYGSGGSRKYLLASLDQSLKRMGLEYVDIFYSHRVDENTPMEETASALAHAVQSGKALYVGISSYSPERTQKMVELLREWKIPLLIHQPSYNLLNRWVDKSGLLDTLQNNGVGCIAFTPLAQGLLTGKYLNGIPQDSRMHREGNKVRGLTPKMLTEANLNSLRLLNEMAQQRGQSMAQMALSWLLKDDRVTSVLIGASRAEQLEENVQALNNLTFSTKELAQIDQHIADGELNLWQASSDK”, the “total protein half-life in vivo” value runs as follows: under setting [1], 5.44 ± 0.59 h; under setting [2], 5.3 ± 0.24 h; under setting [3], 4.93 ± 0.43 h; under setting [4], 5.69 ± 0.77 h; under setting [5], 4.18 ± 0.68 h; under setting [6], 3.2 ± 0.16 h. In addition, the “total protein half-life in vivo” value runs as follows: under setting [7], 6.28 ± 0.24 h; under setting [8], 11.4 ± 1.3 h; under setting [9], 5.12 ± 0.82 h; under setting [10], 8.176 ± 0.024 h; under setting [11], 6.24 ± 0.32 h; under setting [12], 12.4 ± 1.1 h.
“MLYIDKATILKFDLEMLKKHRRAIQFIAVLLFIVGLLCISFPFVSGDILSTVVGALLICSGIALIVGLFSNRSHNFWPVLSGFLVAVAYLLIGYFFIRAPELGIFAIAAFIAGLFCVAGVIRLMSWYRQRSMKGSWLQLVIGVLDIVIAWIFLGATPMVSVTLVSTLVGIELIFSAASLFSFASLFVKQQ [P0AET5]”: the “total protein half-life in vivo” value reads like this: under setting [1], 5.35 ± 0.17 h; under setting [2], 5.39 ± 0.49 h; under setting [3], 5.44 ± 0.84 h; under setting [4], 5.08 ± 0.17 h; under setting [5], 6.6 ± 0.066 h; under setting [6], 2.2 h. Also, the “total protein half-life in vivo” value was more than 16 h under setting [8]; 5.33 ± 0.29 h under setting [9]; 10.1 h under setting [10]; 5.5 ± 0.65 h under setting [11]; 10.1 ± 1.1 h under setting [12].
With “MMSFQKIYSPTQLANAMKLVRQQNGWTQSELAKKIGIKQATISNFENNPDNTTLTTFFKILQSLELSMTLCDAKNASPESTEQQNLEW”, the “total protein half-life in vivo” value is, setting by setting: under setting [8], 11.7 h; under setting [9], 4.64 h; under setting [12], 12 ± 0.84 h.
For “MRKTVAFGFVGTVLDYAGRGSQRWSKWRPTLCLCQQESLVIDRLELLHDARSRSLFETLKRDIASVSPETEVVSVEIELHNPWDFEEVYACLHDFARGYEFQPEKEDYLIHITTGTHVAQICWFLLAEARYLPARLIQSSPPRKKEQPRGPGEVTIIDLDLSRYNAIASRFAEERQQTLDFLKSGIATRNPHFNRMIEQIEKVAIKSRAPILLNGPTGAGKSFLARRILELKQARHQFSGAFVEVNCATLRGDTAMSTLFGHVKGAFTGARESREGLLRSANGGMLFLDEIGELGADEQAMLLKAIEEKTFYPFGSDRQVSSDFQLIAGTVRDLRQLVAEGKFREDLYARINLWTFTLPGLRQRQEDIEPNLDYEVERHASLTGDSVRFNTEARRAWLAFATSPQATWRGNFRELSASVTRMATFATSGRITLDVVEDEINRLRYNWQESRPSALTALLGAEAENIDLFDRMQLEHVIAICRQAKSLSAAGRQLFDVSRQGKASVNDADRLRKYLARFGLTWEAVQDQHSSS”, the “total protein half-life in vivo” value under setting [4] is 4.02 h.
For “MKQYLELMQKVLDEGTQKNDRTGTGTLSIFGHQMRFNLQDGFPLVTTKRCHLRSIIHELLWFLQGDTNIAYLHENNVTIWDEWADENGDLGPVYGKQWRAWPTPDGRHIDQITTVLNQLKNDPDSRRIIVSAWNVGELDKMALAPCHAFFQFYVADGKLSCQLYQRSCDVFLGLPFNIASYALLVHMMAQQCDLEVGDFVWTGGDTHLYSNHMDQTHLQLSREPRPLPKLIIKRKPESIFDYRFEDFEIEGYDPHPGIKAPVAI [P0A884]”, the “total protein half-life in vivo” value is 4.71 ± 0.41 h under setting [1]; 4.939 ± 0.04 h under setting [2]; 4.26 ± 0.21 h under setting [3]; 4.54 ± 0.25 h under setting [4]; 4.48 ± 0.38 h under setting [5]; 3.23 ± 0.11 h under setting [6]. The “total protein half-life in vivo” value came to 5.59 ± 0.4 h under setting [7]; 10.3 ± 0.11 h under setting [8]; 4.62 ± 0.15 h under setting [9]; 7.94 ± 0.4 h under setting [10]; 5.65 ± 0.14 h under setting [11]; 10.4 ± 2.7 h under setting [12].
As for “MLDKIDRKLLALLQQDCTLSLQALAEAVNLTTTPCWKRLKRLEDDGILIGKVALLDPEKIGLGLTAFVLIKTQHHSSEWYCRFVTVVTEMPEVLGFWRMAGEYDYLMRVQVADMKRYDEFYKRLVNSVPGLSDVTSSFAMEQIKYTTSLPIE [P0ACJ5]”, the “total protein half-life in vivo” value is, setting by setting: under setting [1], 5.92 ± 0.82 h; under setting [2], 4.67 ± 0.26 h; under setting [3], 4.43 ± 1.7 h; under setting [4], 5.95 h; under setting [5], 5.08 ± 0.24 h; under setting [6], 3.37 ± 0.6 h. Besides, the “total protein half-life in vivo” value under setting [7] was 5.09 ± 0.47 h; the “total protein half-life in vivo” value under setting [8] was 8.43 ± 3.3 h; the “total protein half-life in vivo” value under setting [9] amounted to 4.34 ± 0.2 h; the “total protein half-life in vivo” value under setting [10] was 9.01 ± 4.2 h; the “total protein half-life in vivo” value under setting [11] is 4.45 h; the “total protein half-life in vivo” value under setting [12] worked out at 10.3 ± 3.2 h.
For “MIRFAVIGTNWITRQFVEAAHESGKYKLTAVYSRSLEQAQHFANDFSVEHLFTSLEAMAESDAIDAVYIASPNSLHFSQTQLFLSHKINVICEKPLASNLAEVDAAIACARENQVVLFEAFKTACLPNFHLLRQALPKVGKLRKVFFNYCQYSSRYQRYLDGENPNTFNPAFSNGSIMDIGFYCLASAVALFGEPKSVQATASLLASGVDAQGVVVMDYGDFSVTLQHSKVSDSVLASEIQGEAGSLVIEKLSECQKVCFVPRGSQMQDLTQPQHINTMLYEAELFATLVDEHLVDHPGLAVSRITAKLLTEIRRQTGVIFPADSVKL”, the “total protein half-life in vivo” value by setting is: under setting [1], 4.844 ± 0.015 h; under setting [2], 4.33 ± 0.36 h; under setting [3], 4.29 ± 0.31 h; under setting [4], 4.616 ± 0.03 h; under setting [5], 4.18 ± 0.54 h; under setting [6], 2.56 ± 0.41 h. For the same sequence, the “total protein half-life in vivo” value is, setting by setting: under setting [7], 5.28 ± 0.46 h; under setting [8], 9.44 ± 1.5 h; under setting [9], 4.08 ± 0.11 h; under setting [10], 6.53 ± 1.1 h; under setting [11], 6.55 ± 1 h; under setting [12], 10.8 ± 0.27 h.
“MANKPSAEELKKNLSEMQFYVTQNHGTEPPFTGRLLHNKRDGVYHCLICDAPLFHSQTKYDSGCGWPSFYEPVSEESIRYIKDLSHGMQRIEIRCGNCDAHLGHVFPDGPQPTGERYCVNSASLRFTDGENGEEING [P0A746]”: the “total protein half-life in vivo” value reads like this: under setting [2], 3.48 ± 0.34 h; under setting [3], 3.1 ± 0.16 h; under setting [4], 3.91 ± 0.56 h; under setting [5], 2.55 ± 0.31 h; under setting [6], 1.95 ± 0.59 h; under setting [7], 4.02 ± 0.54 h. Also, the “total protein half-life in vivo” value under setting [8] stood at 5.47 ± 0.75 h; the “total protein half-life in vivo” value under setting [9] stood at 3.22 ± 0.13 h; the “total protein half-life in vivo” value under setting [10] was found to be 4.64 ± 0.16 h; the “total protein half-life in vivo” value under setting [11] was 2.79 ± 0.38 h; the “total protein half-life in vivo” value under setting [12] was 6.29 ± 0.15 h.

The values are drawn from the supplement of paper PMC11246515.
